Source: patent US20090203886A1 (OSAKA UNIVERSITY, published 2009)

T1: human CD20 antigen (human, UniProt P11836 1-297)
T1 sequence (looked up): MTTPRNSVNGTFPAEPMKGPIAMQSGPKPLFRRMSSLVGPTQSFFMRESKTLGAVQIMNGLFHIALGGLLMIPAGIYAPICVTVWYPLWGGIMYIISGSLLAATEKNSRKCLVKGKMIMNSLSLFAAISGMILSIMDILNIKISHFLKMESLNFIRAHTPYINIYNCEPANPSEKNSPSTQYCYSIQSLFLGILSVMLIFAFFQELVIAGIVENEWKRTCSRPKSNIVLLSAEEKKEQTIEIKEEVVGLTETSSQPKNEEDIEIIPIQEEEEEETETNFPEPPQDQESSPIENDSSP

B1: 1K1791 murine anti CD20 monoclonal antibody (antibody, V domains shown)
VH: QIQLVQSGPELKKPGETVKISCKASGYTFTNFGVNWVKQAPGKGLKWMGWINTYTGEPSYADDFKGRFAFSLEASANTAYLQINNLKNDDMSTYFCTRRTNYYGTSYYYAMDYWGQGTSVTVSS
VL: STVMTQTPKFLLVSAGDRVTITCKASQSVSNDVAWYQQKPGQSPKVLIYFASNRYTGVPDRFTGSGYGTDFTFTINTVQAEDLAVYFCQQDYSSPLTFGAGTKLELK
notes: also called m1791

Key:
[1] = target: T1, human CD20 antigen; experiment: Scatchard analysis on Raji cells, FITC secondary antibody fluorescence (Example 2)
Method: The mixture was shaken for one hour at room temperature while shielding against light and primary antibodies binding to cells were detected. After the reaction, the mixture was centrifuged at 3,000 rpm for three minutes and the cells were recovered. The cells were suspended in 200 μl of PBS to remove unreacted FITC-labeled anti murine IgG (H&L) antibody remaining on the cell surface and then centrifuged at 3,000 rpm for three minutes to remove the supernatant. This operation was repeated twice.
After the detection step, the image was digitized using image analysis software Image Quant (Amersham Bioscience) and analyzed using Excel (Microsoft). Background values for the plate, the PBS solution and FITC-labeled secondary antibody displaying non-specific binding to cells were determined. Then a value for the reaction only between the cells and the FITC-labeled secondary antibodies was obtained. Average values for those four points were subtracted from the fluorescent intensity value for each sample in order to obtain the amount of fluorescence of cell-conjugated FITC-labeled secondary antibody. A standard curve was prepared by measuring the amount of fluorescence at various concentrations of control cell-conjugated FITC-labeled secondary antibodies. Thus the amount of cell-conjugated secondary antibody (number of moles or weight) was calculated. The amount of cell-conjugated primary antibody was calculated assuming that each primary antibody and the FITC-labeled secondary antibody react at a ratio of 1:2. Primary antibody in suspension was calculated by subtracting the cell-conjugated amount from the added amount. When calculating the antibody concentration as a molar concentration, the molecular weight of the monoclonal was taken to be 150,000.
Scatchard analysis was used to calculate the antigen number and dissociation constant (Kd value) refer to Scatchard, G.; Ann. N.Y. Acad.

[2] = target: T1, human CD20 antigen; experiment: cell-based or functional assay
[3] = target: T1, human CD20 antigen; experiment: cell-based or functional assay; remark: listed apart in the source
[4] = target: T1, human CD20 antigen; experiment: cell-based or functional assay; remark: listed apart in the source

| Molecule | Kd [1] | Cell growth inhibiting test on Raji cells, Absorption (492 nm) (absorbance 492 nm) [2] | Cell growth inhibiting test on Raji cells, Absorption (492 nm) [3] | Capacity to Induce Apoptosis (Raji cells) [4] |
| --- | --- | --- | --- | --- |
| 2B8 murine anti CD20 antibody (positive control) | 6.79 nM | 1.76 |  |  |
| B1 | 1.7 nM |  | 1.79 absorbance 492 nm | 160 |
